Reference: patent US6623738 (University of California, dated 2003)

T1: mouse neuropilin-2(a5), myc-tagged, expressed in COS-7 cells (mouse, UniProt O35375 21-931)
T1 construct: also called a5 isoform of neuropilin-2; SR2(a)5
T1 sequence: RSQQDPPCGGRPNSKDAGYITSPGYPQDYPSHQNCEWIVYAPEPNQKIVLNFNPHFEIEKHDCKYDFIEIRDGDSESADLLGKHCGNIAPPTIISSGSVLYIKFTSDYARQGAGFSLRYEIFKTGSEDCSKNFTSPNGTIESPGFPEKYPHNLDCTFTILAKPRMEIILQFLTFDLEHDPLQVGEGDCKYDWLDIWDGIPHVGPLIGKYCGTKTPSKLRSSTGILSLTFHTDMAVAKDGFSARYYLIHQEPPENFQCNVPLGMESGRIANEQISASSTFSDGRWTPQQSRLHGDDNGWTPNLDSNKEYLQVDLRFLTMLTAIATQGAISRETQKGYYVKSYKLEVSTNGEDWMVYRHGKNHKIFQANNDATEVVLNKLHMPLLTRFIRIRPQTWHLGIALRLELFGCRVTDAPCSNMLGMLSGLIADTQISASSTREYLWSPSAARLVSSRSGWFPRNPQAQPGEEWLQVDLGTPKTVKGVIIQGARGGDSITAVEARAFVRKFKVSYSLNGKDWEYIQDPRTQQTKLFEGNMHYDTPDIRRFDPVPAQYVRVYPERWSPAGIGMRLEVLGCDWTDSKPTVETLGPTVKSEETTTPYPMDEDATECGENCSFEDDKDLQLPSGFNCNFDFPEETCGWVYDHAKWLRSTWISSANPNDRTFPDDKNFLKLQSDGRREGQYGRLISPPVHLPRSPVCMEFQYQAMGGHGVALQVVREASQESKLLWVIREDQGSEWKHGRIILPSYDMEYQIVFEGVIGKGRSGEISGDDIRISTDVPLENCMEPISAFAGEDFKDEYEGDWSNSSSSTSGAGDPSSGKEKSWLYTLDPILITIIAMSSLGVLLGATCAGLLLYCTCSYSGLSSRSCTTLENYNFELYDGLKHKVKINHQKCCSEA


Experiments:
[1] = molecular target: T1, mouse neuropilin-2(a5), myc-tagged, …; experiment: equilibrium binding of AP fusion to neuropilin-2-expressing COS cells (figure legend)
Method: (§1) FIGS. 5A–5C. Equilibrium binding of semaphorin-AP fusion proteins to neuropilin-expressing cells. Transfected or control COS cells were incubated with concentrated media containing the indicated concentrations of semaphorin-AP fusion proteins. AP activity derived from bound fusion proteins was measured […] at 405 nm; specific binding was obtained after subtraction of background from control cells. Specific binding curves to cells expressing neuropilin-1 (closed circles) or […] are shown for Sema III-AP (A), Sema E-AP (B), and Sema IV-AP (C). Dissociation constants for interaction with neuropilin-2-expressing cells were 0.29 for Sema E-AP and 0.09 nM for Sema IV-AP.
(§2) We estimated the binding affinity of the AP fusions of Sema III, Sema E and Sema IV to cells expressing neuropilin-1 or neuropilin-2 in equilibrium binding experiments. For these experiments, we used the a5 isoform of neuropilin-2. […] Those for Sema IV binding to neuropilin-1 and neuropilin-2 were 30 nM and 5 nM, respectively. […] Similar Kd values were obtained using the b5 isoform of neuropilin-2 and the degree of binding of different semaphorins to cells all isoforms tested appeared similar.

[2] = molecular target: T2, neuropilin-1 transiently expressed in COS-7 cells (Rattus norvegicus (Rat), UniProt Q9QWJ9 22-922); experiment: equilibrium binding of AP fusion to transfected COS cells, Hill fit
T2 construct: also called npn-1; SR1
Method: as §1, §2

[3] = molecular target: T1, mouse neuropilin-2(a5), myc-tagged, …; experiment: equilibrium binding of AP fusion to transfected COS cells (a5 isoform), Hill fit
Method: as §1, §2

Row | Kd [1] [nM] | Kd [2] [nM] | Kd [3] [nM] | Binder
1 | 0.09 | 30 | 5 | Sema IV-AP fusion protein (human Sema IV fused to alkaline phosphatase) (ligand, UniProt Q13275 19-785, looked up, written as in the name; Partially purified conditioned medium; also called Sema IV/Sema 3F; not shown: secreted alkaline phosphatase in pSecTag-A) SFPTQDHLPATPRVRLSFKELKATGTAHFFNFLLNTTDYRILLKDEDHDRMYVGSKDYVLSLDLHDINREPLIIHWAASPQRIEECVLSGKDVNGECGNFVRLIQPWNRTHLYVCGTGAYNPMCTYVNRGRRAQATPWTQTQAVRGRGSRATDGALRPMPTAPRQDYIFYLEPERLESGKGKCPYDPKLDTASALINEELYAGVYIDFMGTDAAIFRTLGKQTAMRTDQYNSRWLNDPSFIHAELIPDSAERNDDKLYFFFRERSAEAPQSPAVYARIGRICLNDDGGHCCLVNKWSTFLKARLVCSVPGEDGIETHFDELQDVFVQQTQDVRNPVIYAVFTSSGSVFRGSAVCVYSMADIRMVFNGPFAHKEGPNYQWMPFSGKMPYPRPGTCPGGTFTPSMKSTKDYPDEVINFMRSHPLMYQAVYPLQRRPLVVRTGAPYRLTTIAVDQVDAADGRYEVLFLGTDRGTVQKVIVLPKDDQELEELMLEEVEVFKDPAPVKTMTISSKRQQLYVASAVGVTHLSLHRCQAYGAACADCCLARDPYCAWDGQACSRYTASSKRRSRRQDVRHGNPIRQCRGFNSNANKNAVESVQYGVAGSAAFLECQPRSPQATVKWLFQRDPGDRRREIRAEDRFLRTEQGLLLRALQLSDRGLYSCTATENNFKHVVTRVQLHVLGRDAVHAALFPPLSMSAPPPPGAGPPTPPYQELAQLLAQPEVGLIHQYCQGYWRHVPPSPREAPGAPRSPEPQDQKKPRNRRHHPPDT
2 | 0.29 | 5 | 18 | Sema E-AP fusion protein (mouse Sema E fused to alkaline phosphatase) (ligand, UniProt Q62181 21-751, looked up, written as in the name; Partially purified conditioned medium; not shown: secreted alkaline phosphatase of vector APtag-4) GSSQPQARVYLTFDELRETKTSEYFSLSHQQLDYRILLMDEDQDRIYVGSKDHILSLNINNISQEPLSVFWPASTIKVEECKMAGKDPTHGCGNFVRVIQTFNRTHLYVCGSGAFSPVCTYLNRGRRSEDQVFMIDSKCESGKGRCSFNPNVNTVSVMINEELFSGMYIDFMGTDAAIFRSLTKRNAVRTDQHNSKWLSEPMFVDAHVIPDGTDPNDAKVYFFFKERLTDNNRSTKQIHSMIARICPNDTGGQRSLVNKWTTFLKARLVCSVTDEDGPETHFDELEDVFLLETDNPRTTLVYGIFTTSSSVFKGSAVCVYHLSDIQTVFNGPFAHKEGPNHQLISYQGRIPYPRPGTCPGGAFTPNMRTTKDFPDDVVTFIRNHPLMYNSIYPIHRRPLIVRIGTDYKYTKIAVDRVNAADGRYHVLFLGTDRGTVQKVVVLPTNSSASGELILEELEVFKNHVPITTMKISSKKQQLYVSSNEGVSQVSLHRCHIYGTACADCCLARDPYCAWDGHSCSRFYPTGKRRSRRQDVRHGNPLTQCRGFNLKAYRNAAEIVQYGVRNNSTFLECAPKSPQASIKWLLQKDKDRRKEVKLNERIIATSQGLLIRSVQDSDQGLYHCIATENSFKQTIAKINFKVLDSEMVAVVTDKWSPWTWAGSVRALPFHPKDILGAFSHSEMQLINQYCKDTRQQQQLGEEPQKMRGDYGKLKALINSRKSRNRRNQLPES
